Patent US20210054365A1
Like-named read-outs stand apart in the source and are kept apart here.

T1: BclB (UniProt Q9HD36)
T1 sequence (looked up): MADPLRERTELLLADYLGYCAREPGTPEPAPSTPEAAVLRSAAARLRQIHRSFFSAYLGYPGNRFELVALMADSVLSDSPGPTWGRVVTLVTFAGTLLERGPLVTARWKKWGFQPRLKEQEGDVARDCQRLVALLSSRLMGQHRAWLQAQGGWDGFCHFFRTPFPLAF

B1: BINDI-BCDP01 (designed binder, from a related filing)
chain: ADPKKVLDKAKDQAENRVRELKQELERLYKEARKLDLTQEMRRKLEWRYIAAMLKAIGDILNAIAQAENEADKLKKAGLVNSQQLDELRRRLEELAKEAARKAHDYGREFQLKLEY
B2: XINDI-XCDP07 (designed binder, from a related filing)
chain: ADPKKVLDKAKDRAENVVRKLKKELEELYKEARKLDLTQEMRDRIRLAAIAARIAAFGDIFHAIMEALEEARKLKKAGLVNSQQLDELKRRLEELDEEAAQRAEKLGKEFELKLEY

Columns and labels:
[1] = biological target: Sag1 (Saccharomyces cerevisiae) (UniProt P20840); assay: cell-based or functional assay
[2] = biological target: Sag1 (Saccharomyces cerevisiae) (UniProt P20840); assay: cell-based or functional assay; remark: listed apart in the source
Bcl2 = Bcl2 (UniProt P10415); assay: affinity as tabulated ('known affinities'); method not stated
Bfl1 = Bfl1 (UniProt Q16548); assay: as above
BclB = biological target: T1, BclB; assay: as above
Mcl1 = Mcl1 (UniProt Q07820); assay: as above
BclXL = BclXL (UniProt Q07817); assay: as above
BclW = BclW (UniProt Q92843); assay: as above
BclW, sequence (Q92843 1-182 limits assumed): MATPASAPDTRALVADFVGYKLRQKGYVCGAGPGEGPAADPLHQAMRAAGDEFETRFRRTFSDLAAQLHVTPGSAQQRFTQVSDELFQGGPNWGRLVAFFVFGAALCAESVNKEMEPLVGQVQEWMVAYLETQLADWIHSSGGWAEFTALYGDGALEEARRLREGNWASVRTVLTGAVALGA

BclXL, sequence (Q07817 1-209 limits assumed): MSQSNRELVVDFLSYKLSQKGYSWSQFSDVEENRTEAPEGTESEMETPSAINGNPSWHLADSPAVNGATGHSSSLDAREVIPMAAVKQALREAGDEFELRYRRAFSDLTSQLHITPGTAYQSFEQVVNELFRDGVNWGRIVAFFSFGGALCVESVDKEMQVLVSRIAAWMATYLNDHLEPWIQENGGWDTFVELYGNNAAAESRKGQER
Bcl2, sequence (P10415 1-207 limits assumed): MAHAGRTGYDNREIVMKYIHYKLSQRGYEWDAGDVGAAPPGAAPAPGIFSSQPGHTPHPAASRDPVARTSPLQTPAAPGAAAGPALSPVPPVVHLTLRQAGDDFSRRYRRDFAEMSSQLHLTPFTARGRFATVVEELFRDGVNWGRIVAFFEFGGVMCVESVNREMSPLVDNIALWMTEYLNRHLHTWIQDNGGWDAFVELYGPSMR
Sag1 (Saccharomyces cerevisiae), sequence (P20840 20-627): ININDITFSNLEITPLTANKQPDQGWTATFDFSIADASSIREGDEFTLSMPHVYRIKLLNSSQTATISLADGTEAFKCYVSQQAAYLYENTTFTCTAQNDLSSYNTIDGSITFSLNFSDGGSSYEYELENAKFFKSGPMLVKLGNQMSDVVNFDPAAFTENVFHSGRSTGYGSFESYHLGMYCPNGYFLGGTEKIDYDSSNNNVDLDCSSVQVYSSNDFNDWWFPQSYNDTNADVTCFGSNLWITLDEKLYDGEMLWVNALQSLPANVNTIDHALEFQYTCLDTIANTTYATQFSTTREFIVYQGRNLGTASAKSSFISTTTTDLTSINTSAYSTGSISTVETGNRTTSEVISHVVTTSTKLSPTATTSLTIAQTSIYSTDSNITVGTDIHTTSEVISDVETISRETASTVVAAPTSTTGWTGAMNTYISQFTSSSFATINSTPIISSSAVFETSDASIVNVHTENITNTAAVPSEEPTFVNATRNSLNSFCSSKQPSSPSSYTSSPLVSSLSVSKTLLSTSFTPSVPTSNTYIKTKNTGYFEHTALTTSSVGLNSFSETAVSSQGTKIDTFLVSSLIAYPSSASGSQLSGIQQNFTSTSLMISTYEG
Bfl1, sequence (Q16548 1-153 limits assumed): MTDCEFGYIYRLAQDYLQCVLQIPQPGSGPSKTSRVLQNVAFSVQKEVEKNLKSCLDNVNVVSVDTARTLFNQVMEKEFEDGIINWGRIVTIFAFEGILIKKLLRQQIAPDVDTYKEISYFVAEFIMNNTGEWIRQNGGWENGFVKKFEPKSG
Mcl1, sequence (Q07820 whole entry): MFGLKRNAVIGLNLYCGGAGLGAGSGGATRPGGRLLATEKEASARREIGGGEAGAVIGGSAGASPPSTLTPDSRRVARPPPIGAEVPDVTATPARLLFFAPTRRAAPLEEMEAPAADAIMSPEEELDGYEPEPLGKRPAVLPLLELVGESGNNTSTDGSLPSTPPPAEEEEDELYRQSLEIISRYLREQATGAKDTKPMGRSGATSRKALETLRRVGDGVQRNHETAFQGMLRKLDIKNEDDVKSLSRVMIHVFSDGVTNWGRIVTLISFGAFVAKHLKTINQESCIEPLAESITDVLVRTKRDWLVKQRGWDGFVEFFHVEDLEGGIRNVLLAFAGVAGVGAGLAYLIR

Molecule | mating efficiency [1] | mating efficiency [2] | Kd (Bcl2) | Kd (Bfl1) | Kd (BclB) | Kd (Mcl1) | Kd (BclXL) | Kd (BclW)
Aga2 (from UniProt P32781 19-87) | > 50% | 57.1% | – | – | – | – | – | –
B1 | – | – | 17.3 nM | 518 nM | 8.33 nM | 0.46 nM | 20.2 nM | 2010 nM
B2 | – | – | 3.81 nM | 7050 nM | 107 nM | 17.4 nM | 0.59 nM | 14.9 nM
